Broadly, the stoichiometry N is a count of units in the complex or per binding partner.

This experiment addresses Mycoplasma hyopneumoniae enolase (Mhp Eno, MHP168_271) (Mycoplasma hyopneumoniae). Nature of the experiment: crystal structure.

As to “Mycoplasma hyopneumoniae enolase (Mhp Eno, MHP168_271) (enzyme)”, the stoichiometry N was determined as 8.
